Assay results taken from publication doi:10.1101/205575.

Assays:
[1] = tested on: AsCpf1 (Cas12a) (Acidaminococcus sp.?); assay: smFRET titration; settings: amino-dT in non-target strand, pH 8.0 ([…]) or pH 7.0 ([…]
FnCpf1 (Cas12a) = assay: smFRET titration; settings: amino-dT in non-target strand, pH 8.0 ([…]) or pH 7.0 ([…]

## cognate DNA target (nPD=0) with Cy5 guide-RNA
[1]
  Kd: 100 pM
FnCpf1 (Cas12a)
  Kd: 270 pM
